# Laboratory results from patent US20110124071A1, “METHODS AND COMPOSITIONS FOR PRODUCING HYDROCARBONS” (priority 2009, published 2011).
# Like-named read-outs stand apart in the source and are kept apart here.
# T1: PCC7942_orf1594 protein (Synechococcus elongatus, UniProt Q54765)
# T1 construct: His-tag (C); made in house; host or cells: E. coli BL21 (DE3)
# T1 sequence (Q54765 1-341): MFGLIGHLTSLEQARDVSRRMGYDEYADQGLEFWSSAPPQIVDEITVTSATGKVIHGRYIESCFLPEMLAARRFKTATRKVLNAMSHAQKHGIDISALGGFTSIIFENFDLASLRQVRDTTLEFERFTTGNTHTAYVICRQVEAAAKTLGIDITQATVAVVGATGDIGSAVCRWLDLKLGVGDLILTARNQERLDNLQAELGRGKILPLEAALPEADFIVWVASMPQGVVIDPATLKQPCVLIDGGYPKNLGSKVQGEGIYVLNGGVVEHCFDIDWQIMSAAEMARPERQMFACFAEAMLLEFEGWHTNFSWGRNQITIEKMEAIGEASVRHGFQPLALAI
# B1: ATCC51142 cce—1430: Cyanothece sp. ATCC51142 putative aldehyde-generating enzyme, Acyl-ACP reductase (SEQ ID NO: 70) (protein, listed as Cyanothece sp.)
# chain: MFGLIGHLTSLEHAHSVADAFGYGPYATQGLDLWCSAPPQFVEHFHVTSITGQTIEGKYIESAFLPEMLIKRRIKAAIRKILNAMAFAQKNNLNITALGGFSSIIFEEFNLKENRQVRNVSLEFDRFTTGNTHTAYIICRQVEQASAKLGIDLSQATVAICGATGDIGSAVCRWLDRKTDTQELFLIARNKERLQRLQDELGRGKIMGLEEALPEADIIVWVASMPKGVEINAETLKKPCLIIDGGYPKNLDTKIKHPDVHILKGGIVEHSLDIDWKIMETVNMDVPSRQMFACFAEAILLEFEQWHTNFSWGRNQITVTKMEQIGEASVKHGLQPLLSW
# B2: PMM0533: Prochlorococcus marinus CCMP1986 putative aldehyde-generating enzyme (SEQ ID NO: 72) (protein, listed as Prochlorococcus marinus)
# chain: MFGLIGHSTSFEDAKRKASLLGFDHIADGDLDVWCTAPPQLVENVEVKSAIGISIEGSYIDSCFVPEMLSRFKTARRKVLNAMELAQKKGINITALGGFTSIIFENFNLLQHKQIRNTSLEWERFTTGNTHTAWVICRQLEMNAPKIGIDLKSATVAVVGATGDIGSAVCRWLINKTGIGELLLVARQKEPLDSLQKELDGGTIKNLDEALPEADIVVWVASMPKTMEIDANNLKQPCLMIDGGYPKNLDEKFQGNNIHVVKGGIVRFFNDIGWNMMELAEMQNPQREMFACFAEAMILEFEKCHTNFSWGRNNISLEKMEFIGAASVKHGFSAIGLDKHPKVLAV
# B3: octadecenoyl-ACP (conjugate, UniProt Q31QV1 1-80, looked up)
# Acyl carrier protein: MSQEDIFSKVKDIVAEQLSVDVAEVKPESSFQNDLGADSLDTVELVMALEEAFDIEIPDEAAEGIATVQDAVDFIASKAA
# modifications: octadecenoyl acyl thioester
# notes: acyl-ACP (acyl carrier protein) substrate of PCC7942_orf1594 reductase
# B4: AM1—4041: Acaryochloris marina MBIC11017 putative decarbonylase (SEQ ID NO: 9) (protein, listed as Acaryochloris marina)
# chain: MPQTQAISEIDFYSDTYKDAYSRIDGIVIEGEQEAHENYIRLGEMLPEHQDDFIRLSKMEARHKKGFEACGRNLKVTCDLDFARRFFSDLHKNFQDAAAEDKVPTCLVIQSLIIECFAIAAYNIYIPVADDFARKITESVVKDEYQHLNYGEEWLKAHFDDVKAEIQEANRKNLPIVWRMLNEVDKDAAVLGMEKEALVEDFMIQYGEALSNIGFSTGEIMRMSAYGLVAA
# Experiments:
# PCC7942_orf1594 protein = molecular target: T1, PCC7942_orf1594 protein; experiment: acyl-ACP or acyl-CoA reductase enzyme assay, GC/MS; type: biochemical
# Method: The genomic DNA encoding S. elongatus PCC7492 orf1594 (SEQ ID NO: 66) was cloned into the NcoI and XhoI sites of vector pET-28b under the control of the T7 promoter. The resulting PCC7942_orf1594 protein contained a C-terminal His-tag. An E. coli BL21 strain (DE3) (Invitrogen) was transformed with the plasmid and PCC7942_orf1594 protein was expressed and purified as described in Example 22. The protein solution was stored in the following buffer: 50 mM sodium phosphate, pH 7.5, 100 mM NaCl, 1 mM THP, 10% glycerol. Protein concentration was determined using the Bradford assay (Bio-Rad). 2 mg/ml of PCC7942 orf1594 protein was obtained.
# To test PCC7942_orf1594 protein for acyl-ACP or acyl-CoA reductase activity, the following enzyme assays were set-up. 100 μl reactions were set-up in 50 mM Tris-HCl buffer at pH 7.5 with the following components at their respective final concentrations: 10 μM of purified PCC7942_orf1594 protein, 0.01-1 mM acyl-CoA or acyl-ACP, 2 mM MgCl2, 0.2-2 mM NADPH. The reactions were incubated for 1 h at 37° C. and where stopped by adding 100 μl ethyl acetate (containing 5 mg/l 1-octadecene as internal standard). Samples were vortexed for 15 min and centrifuged at max speed for 3 min for phase separation. 80 μl of the top layer were transferred into GC glass vials and analyzed by GC/MS as described in Example 26. The amount of aldehyde formed was calculated based on the internal standard.
# E. coli MG1655 [1] = experiment: Heterologous expression of putative aldehyde-generating enzyme alone in E. coli, GC-MS of extracts; type: cell-based; details: enzyme expressed alone in E. coli MG1655, M9 minimal media, 37° C.
# Method: (§1) The genomic DNA encoding Synechococcus elongatus PCC7942 orf1594 (YP—400611; putative aldehyde-generating enzyme) (SEQ ID NO: 65) was amplified and cloned into the NcoI and EcoRI sites of vector OP-80 (pCL1920 derivative) under the control of the Ptrc promoter. The resulting construct (“OP80-PCC7942—1594”) was transformed into E. coli MG1655 and the cells were grown at 37° C. in M9 minimal media with 1% (w/v) glucose as carbon source and supplemented with 100 μg/ml spectinomycin. When the culture reached OD600 of 0.8-1.0, it was induced with 1 mM IPTG and cells were grown for an additional 18-20 h at 37° C. Cells from 0.5 ml of culture were extracted with 0.5 ml of ethyl acetate. After sonication for 60 min, the sample was centrifuged at 15,000 rpm for 5 min. The solvent layer was analyzed by GC-MS as described in Example 1.
# The genomic DNA encoding Cyanothece sp. ATCC51142 cce—1430 (YP—001802846; putative aldehyde-generating enzyme) (SEQ ID NO: 70) was amplified and cloned into the NcoI and EcoRI sites of vector OP-80 (pCL1920 derivative) under the control of the Ptrc promoter. The resulting construct was transformed into E. coli MG1655 and the cells were grown at 37° C. in M9 minimal media with 1% (w/v) glucose as carbon source and supplemented with 100 μg/ml spectinomycin. The cells were cultured and extracted as in Example 3 and analyzed by GC-MS as described in Example 26.
# The genomic DNA encoding P. mariunus CCMP1986 PMM0533 (NP_892651; putative aldehyde-generating enzyme) (SEQ ID NO: 72) and Prochlorococcus mariunus CCMP1986 PMM0532 (NP_892650; putative decarbonylase) (SEQ ID NO: 19) were amplified and cloned into the NcoI and EcoRI sites of vector OP-80 and the NdeI and XhoI sites of vector OP-183, respectively. The resulting constructs were separately transformed and cotransformed into E. coli MG1655 and the cells were grown at 37° C. in M9 minimal media supplemented with 100 μg/ml spectinomycin and 100 μg/ml carbenicillin. The cells were cultured and extracted as in Example 3 and analyzed by GC-MS as described in Example 26.
# E. coli MG1655 [2] = experiment: Coexpression of putative decarbonylase with S. elongatus PCC7942 orf1594 in E. coli, GC-MS of extracts; type: cell-based; details: coexpressed with S. elongatus PCC7942 orf1594 in E. coli MG1655, M9 minimal media
# Method: After a 1 μl splitless injection (inlet temperature held at 300° C.) onto the GC/MS column, the oven was held at 100° C. for 3 mins. The temperature was ramped up to 320° C. at a rate of 20° C./min. The oven was held at 320° C. for an additional 5 min. The flow rate of the carrier gas helium was 1.3 ml/min. The MS quadrapole scanned from 50 to 550 m/z. Retention times and fragmentation patterns of product peaks were compared with authentic references to confirm peak identity.
# as §1
# The genomic DNA encoding Synechococcus elongatus PCC7942 orf1593 (YP—400610; putative decarbonylase) (SEQ ID NO: 1) was amplified and cloned into the NdeI and XhoI sites of vector OP-183 (pACYC derivative) under the control of the Ptrc promoter. The resulting construct was cotransformed with OP80-PCC7942—1594 into E. coli MG1655 and the cells were grown at 37° C. in M9 minimal media supplemented with 100 μg/ml spectinomycin and 100 μg/ml carbenicillin. The cells were cultured and extracted as in Example 3 and analyzed by GC-MS as described in Example 1. […]
# [3] = system: E. coli MG1655 ΔfadE lacZ::Ptrc ′tesA-fadD; experiment: Heterologous expression in a fatty acyl-CoA-producing E. coli strain, GC-MS; type: cell-based; details: decarbonylase coexpressed with acyl-ACP reductase in acyl-CoA-producing strain
# Text: The genomic DNA encoding Acaryochloris marina MBIC11017 AM1—4041 (YP—001518340; putative fatty aldehyde decarbonylase) (SEQ ID NO: 9) was synthesized and cloned into the NdeI and XhoI sites of vector OP-183 (pACYC derivative) under the control of the Ptrc promoter. The resulting construct was cotransformed with OP80-PCC7942—1594 into E. coli MG1655 ΔfadE lacZ::Ptrc ′tesA-fadD. This strain expresses a cytoplasmic version of the E. coli thioesterase, ′TesA, and the E. coli acyl-CoA synthetase, FadD, under the control of the Ptrc promoter, and therefore produces fatty acyl-CoAs. The cells were grown at 37° C. in M9 minimal media supplemented with 100 μg/ml spectinomycin and 100 μg/ml carbenicillin. The cells were cultured and extracted as in Example 3 and analyzed by GC-MS as described in Example 1.
# The genomic DNA encoding Synechocystis sp. PCC6803 sll0208 (NP_442147; putative fatty aldehyde decarbonylase) (SEQ ID NO: 3) was synthesized and cloned into the NdeI and XhoI sites of vector OP-183 (pACYC derivative) under the control of the Ptrc promoter. The genomic DNA encoding Synechocystis sp. PCC6803 sll0209 (NP_442146; acyl-ACP reductase) (SEQ ID NO: 68) was synthesized and cloned into the NcoI and EcoRI sites of vector OP-183 (pACYC derivative) under the control of the Ptrc promoter. The resulting constructs were cotransformed with into E. coli MG1655 ΔfadE lacZ::Ptrc ′tesA-fadD. This strain expresses a cytoplasmic version of the E. coli thioesterase, ′TesA, and the E. coli acyl-CoA synthetase, FadD, under the control of the Ptrc promoter, and therefore produces fatty acyl-CoAs. The cells were grown at 37° C. in M9 minimal media supplemented with 100 μg/ml spectinomycin and 100 μg/ml carbenicillin. The cells were cultured and extracted as in Example 3 and analyzed by GC-MS as described in Example 26.
# [4] = system: E. coli MG1655 ΔfadD lacZ::Ptrc-′tesA; experiment: Heterologous expression in a fatty aldehyde-producing E. coli strain with MSMEG—5739, GC-MS; type: cell-based; details: decarbonylase coexpressed with carboxylic acid reductase MSMEG—5739
# [5] = in the presence of 2 mM NADPH, read-out: Km for the reduction by PCC7942_orf1594
molecule,measurement,setting,value
NC(=O)C1=CN([C@@H]2O[C@H](COP(=O)(O)OP(=O)(O)OC[C@H]3O[C@@H](n4cnc5c(N)ncnc54)[C@H](OP(=O)(O)O)[C@@H]3O)[C@@H](O)[C@H]2O)C=CC1 [NADPH],Km,"PCC7942_orf1594 protein; in the presence of 0.5 mM octadecanoyl-CoA, read-out: Km value for NADPH for PCC7942_orf1594",400 ± 80 µM
octadecenoyl-CoA,Km,PCC7942_orf1594 protein; [5],82 ± 22 µM
NC(=O)C1=CN([C@@H]2O[C@H](COP(=O)(O)OP(=O)(O)OC[C@H]3O[C@@H](n4cnc5c(N)ncnc54)[C@H](O)[C@@H]3O)[C@@H](O)[C@H]2O)C=CC1 [NADH],support of reductase activity as electron donor,PCC7942_orf1594 protein; reduction of octadecanoyl-CoA to octadecanal,did not support reductase activity
B1,production of fatty aldehydes and fatty alcohols,E. coli MG1655 [1],generates aldehydes in vivo
B2,production of fatty aldehydes and fatty alcohols,E. coli MG1655 [1],did not produce any fatty aldehydes or fatty alcohols
B3,Km,PCC7942_orf1594 protein; [5],7.8 ± 2 µM
B4,fatty aldehyde decarbonylase activity (alkane/alkene production),E. coli MG1655 [2],active fatty aldehyde decarbonylase
same,conversion of fatty aldehydes into alkanes/alkenes,[3],"converted into pentadecene, pentadecane and heptadecene"
same,conversion of fatty aldehydes provided by MSMEG—5739 to alkanes,[4],converted fatty aldehydes provided by MSMEG—5739 to the corresponding alkanes
